The target in test [1] is GFP10-RhoB (wild-type RhoB fused to GFP10). Put plainly: cell-based or functional assay.
The target in test [2] is Ras binding domain of c-Raf (RsBD)-GFP11. Put plainly: tripartite split-GFP complementation in GFP1-9 cells, flow cytometry. On the technique in general: A flow cytometer gives signals particle by particle.
Test [3] has as its target T1, Rho-binding domain of Rhotekin (RBD)-GFP11.
T1 construct: also called RBD-11
T1 chain: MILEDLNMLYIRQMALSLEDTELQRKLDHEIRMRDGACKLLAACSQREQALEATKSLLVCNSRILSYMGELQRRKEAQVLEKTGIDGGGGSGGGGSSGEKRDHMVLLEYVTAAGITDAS
The description is as above.

The target in test [4] is T1, Rho-binding domain of Rhotekin …. Put plainly: tripartite split-GFP complementation in GFP1-9 cells, fluorescence microscopy.
Test [5] addresses reconstituted split-GFP (positive cells: 10-R-11, 10-Zipper-11, 10-zipper/zipper-11 with GFP1-9). Put plainly: cell-based or functional assay.

Changes are numbered by the printed parent chain. Numbers in names are those of the source.

As to “cell-permeant recombinant TAT-C3 exoenzyme (from UniProt P15879 41-251)”, the inhibition of RhoB activation (split-GFP fluorescence) in test [1] was greater than 10 µg/mL.

As for “GFP10-H-Ras G12V (dominant positive, GTP-bound variant)”, the induction ratio of split-GFP fluorescence against GDP-bound (S17N) H-Ras in test [2] was determined as 3 fold.

B1: GFP10-RhoB Q63L (constitutively active, dominant positive variant) (other)
chain: MGDLPDDHYLSTQTILSKDLNIDGGGGSGGGGSSGAAIRKKLVVVGDGACGKTCLLIVFSKDEFPEVYVPTVFENYVADIEVDGKQVELALWDTAGLEDYDRLRPLSYPDTDVILMCFSVDSPDSLENIPEKWVPEVKHFCPNVPIILVANKKDLRSDEHVRTELARMKQEPVRTDDGRAMAVRIQAYDYLECSAKTKEGVREVFETATRAALQKRYGSQNGCINCCKVL
notes: also called GFP10-Rho active mutant (Q63L)
For B1, the “fold induction of split-GFP fluorescence against the inactive variant (T19N)” value in test [3] was 5 fold.

B2: GFP10-RhoB T19N (dominant negative variant) (other)
chain: B1 chain with T53N, L97Q
Regarding B2, the binding result in test [4] is recorded as “no binding”.

B3: Myc-VHH anti-GFP nanobody (VHH)
VHH: QVQLVESGGALVQPGGSLRLSCAASGFPVNRYSMRWYRQAPGKEREWVAGMSSAGDRSSYEDSVKGRFTISRDDARNTVYLQMNSLKPEDTAVYYCNVNVGFEYWGQGTQVTVSS
With B3, the mean fluorescence intensity of the positive cells in test [5] turned out to be 4 fold.

(Values after patent US20180164324A1 (INSERM INSTITUT NATIONAL DE LA SANT ET DE LA RECHERCHE M …, published 2018).)
